Measurements as given in patent publication US8168430B2, “Method for preparation of hepatocyte using ES cell” (Nihon University, priority 2006, dated 2012).

Key:
TT2 ES cells [1] = test: Expression of differentiation markers (RT-PCR, western blot) in ES cells induced to differentiate from embryoid bodies; conditions: for expression of the differentiation markers for hepatocyte (albumin, Cyp7a1 etc.): cultured 18 days in supplemented differentiation-inducing medium, RT-PCR and western blot
TT2 ES cells [2] = test: FACS analysis of albumin producing cells; format: cell-based, mouse; conditions: cultured 9 days; FACS with anti-albumin antibodies; control 22%
Description: The medium of the cultured cells was removed and washing was performed using PBS (−). After the cells were detached from the surface of the dish using 0.25% trypsin solution, 5 mL of a collagenase solution as described below was added to the cells and the cells were incubated at 37° C. for 30 minutes in order to digest the intercellular adhesion.
After digestion, cells were collected by centrifugation (1000 rpm, 4° C., 5 minutes) and fixed using 1 mL of ice-chilled 100% methanol. After fixing the cells, centrifugation (1500 rpm, 4° C., 5 minutes) was performed in order to remove the methanol. […] Then FITC-bonded sheep anti-rabbit IgG (MP Biomedicals Inc., Catalog# 55647, Lot# 02756) was added to the cells and the cells were allowed to stand for one hour while shielding against light. After standing for one hour, the cells were loaded by a FACS Canto™ (Becton Dickinson, Franklin Lakes, N.J.) wherein a FSC voltage was set to 80, a FITC voltage was set to 300 and a threshold was set to 1000. Thereafter BD DiVa Software was used for analysis. In FIGS. 12 and 13, the intensity of FITC is shown on the horizontal axis and FSC is shown on the vertical axis.
Then uPA, DFP-treated uPA or tPA was added to differentiation-inducing medium and cultured for 9 days. Cells were isolated using trypsin treatment and collagenase treatment, and FACS analysis was performed using anti-albumin antibodies.

| Compound | expression of the differentiation markers for hepatocyte (albumin, Cyp7a1 etc.) (TT2 ES cells [1]) | induction of differentiation into hepatocytes (TT2 ES cells [1]; differentiation-inducing medium supplemented with the factor) | albumin producing cells, share of the total number of cells (TT2 ES cells [2]) |
| --- | --- | --- | --- |
| tPA: tissue-type PA which has the same substrate specificity as uPA | almost no change | did not induce differentiation into hepatocytes | 27.2% |
| N=C(N)c1ccc(N)cc1 [p-aminobenzamidine, reference compound] | suppressed |  |  |
